In patent US20170196940A1 (RESEARCH FOUNDATION FOR THE STATE UNIVERSITY OF NEW YORK, published 2017):
Positions of bridges follow the written chain, without caps; N, C: chain ends. Non-standard residues stand in square brackets, D forms with d. No end group written: not given here. Bph = 4,4'-bis(methyl)biphenyl crosslink between two cysteines (CL-1)

B1: peptide 3 (peptide)
peptide: H[dS]QGTFTSDYSKYLDS[dC]RAQDFVCWLMNTKRNRNNIA-NH2
modifications: linker 17-24 via Bph
B2: peptide 7 (peptide)
peptide: H[dS]QGTFTSDYSKYLDECAAKEFICWLMNTKRNRNNIA-NH2
modifications: cysteine pairing not given here
B3: peptide 4 (peptide)
peptide: H[dS]QGTFTSDYSKYLDSCRAQDFVCWLMNTKRNRNNIA-NH2
modifications: cysteine pairing not given here
B4: peptide 8 (peptide)
peptide: H[dS]QGTFTSDYSKYLDECAVRLFICWLMNTKRNRNNIA-NH2
modifications: cysteine pairing not given here
B5: peptide 5 (peptide)
peptide: H[dS]QGTFTSDYSKYLDECRAQDFVCWLMNTKRNRNNIA-NH2
modifications: cysteine pairing not given here
B6: peptide 9 (peptide)
peptide: H[dS]QGTFTSDYSKYLDECAAKEFICWLMNTKRNRNNIA-NH2
modifications: linker 17-24 via Bph
B7: peptide 2 (peptide)
peptide: H[dS]QGTFTSDYSKYLDSRRAQ[dC]FVQWLMCTKRNRNNIA-NH2
modifications: cysteine pairing not given here

Legend:
Experiment in all cases: cell-based or functional assay
[1] = target: T1, human glucagon receptor (GCGR) (human, UniProt P47871 26-477)
T1 sequence (P47871 26-477): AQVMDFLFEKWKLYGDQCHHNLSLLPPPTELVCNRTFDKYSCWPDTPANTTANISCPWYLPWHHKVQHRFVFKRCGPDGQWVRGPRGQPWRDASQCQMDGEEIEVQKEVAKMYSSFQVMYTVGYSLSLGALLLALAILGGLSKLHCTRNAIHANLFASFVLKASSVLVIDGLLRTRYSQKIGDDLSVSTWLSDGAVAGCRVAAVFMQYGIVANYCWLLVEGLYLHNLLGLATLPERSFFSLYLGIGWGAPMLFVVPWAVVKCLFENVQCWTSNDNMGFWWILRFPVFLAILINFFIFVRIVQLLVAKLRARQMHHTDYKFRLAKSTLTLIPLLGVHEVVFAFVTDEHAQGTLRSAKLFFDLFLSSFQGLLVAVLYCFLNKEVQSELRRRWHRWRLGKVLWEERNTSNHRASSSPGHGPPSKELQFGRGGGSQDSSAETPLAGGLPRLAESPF

[2] = target: T2, human glucagon-like peptide 1 receptor (GLP-1R) (human, UniProt P43220 24-463)
[3] = target: T1, human glucagon receptor (GCGR); remark: listed apart in the source
[4] = target: T2, human glucagon-like peptide 1 receptor …; remark: listed apart in the source

Row | Binder | Agonist activity (nM), EC50, CRE-luciferase reporter in HEK293 cells overexpressing the receptor [3] | Agonist activity (nM), EC50, CRE-luciferase reporter in HEK293 cells overexpressing the receptor [4] | other results
1 | B1 | 3 nM | ~500 nM | fold increase in activity against linear peptide 1, CRE-luciferase reporter assay [1]: 16 fold; fold increase in activity against linear peptide 1, CRE-luciferase reporter assay [2]: 2 fold
2 | B2 | 30 nM | – | fold higher potency against peptide 5, CRE-luciferase reporter assay [2]: > 80 fold
3 | B3 | 30 nM | ~500 nM | fold increase in activity against peptide 1, CRE-luciferase reporter assay [1]: ~2 fold; fold increase in activity against peptide 1, CRE-luciferase reporter assay [2]: ~2 fold
4 | B4 | 1000 nM | – | fold higher potency against peptide 5, CRE-luciferase reporter assay [2]: > 80 fold
5 | B5 | – | ~400 nM | –
6 | B6 | 0.7 nM | 0.2 nM | fold increase in activity against linear peptide 7, CRE-luciferase reporter assay [1]: 40 fold; fold increase in activity against linear peptide 7, CRE-luciferase reporter assay [2]: 80 fold
7 | B7 | > 1000 nM | > 2000 nM | –
